T1: human soluble IL-6R (human, UniProt P08887 20-357, limits assumed)
T1 construct: Soluble form; also called sIL6R; Human IL-6R
T1 sequence (looked up): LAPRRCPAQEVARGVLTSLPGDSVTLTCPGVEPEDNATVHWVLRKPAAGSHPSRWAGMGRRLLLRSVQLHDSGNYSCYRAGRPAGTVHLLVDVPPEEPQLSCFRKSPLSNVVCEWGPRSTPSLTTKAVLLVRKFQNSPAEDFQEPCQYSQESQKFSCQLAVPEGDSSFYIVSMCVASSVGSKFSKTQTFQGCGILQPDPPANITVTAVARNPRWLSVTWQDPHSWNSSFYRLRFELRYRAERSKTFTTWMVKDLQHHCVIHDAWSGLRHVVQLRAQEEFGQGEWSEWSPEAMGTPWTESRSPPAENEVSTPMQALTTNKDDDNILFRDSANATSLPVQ


Experiments:
human soluble IL-6R [1] = target: T1, human soluble IL-6R; assay: in vivo KD in mouse plasma (albumin present), from total antibody, free and bound sIL6R 5 min after sIL6R; antibody 0.2 mg/kg IV
Method: (§1) Next, free sIL6R in plasma was measured. The concentration of free sIL6R in plasma was measured on a fully automated ELISA system (Gyrolab xP workstation). First, sIL6R prepared at 23.4, 46.9, 93.8, 188, 375, 750, and 1500 ng/mL using a Protein-Free (PBS) Blocking Buffer (Thermo Scientific) was used as solutions for preparing the calibration curve. Mouse plasma samples were used in the measurements without diluting them. A solution of biotin-labeled H54 diluted to 10 micro g/mL using a Protein-Free (PBS) Blocking Buffer was used as a solution of the sIL6R-capturing molecule. Alexa Fluor (registered trademark) 647-labeled anti-human IL-6R antibody (R&D Systems) diluted to 1 micro g/mL using a Protein-Free (PBS) Blocking Buffer was used as a solution of the human IL-6R-detection molecule. PBS (pH 7.4) containing 0.05% TWEEN was used as a washing solution. The calibration curve solutions, mouse plasma samples, sIL6R-capturing molecule solution, sIL6R-detection molecule solution, and the washing solution were placed onto a PCR plate, and then the PCR plate was sealed with a plate sealer. After the PCR plate and the Bioaffy 200 disc were placed in the Gyrolab xP workstation, measurements were taken. Using the data processed by the Gyros Evaluater 3.6.2.30 software and the calibration curve concentrations, the concentration of free sIL6R in plasma was calculated by logistic regression using the XLfit 5.5.0.5 software.
Additionally, bound sIL6R in plasma was measured. The concentration of bound sIL6R in plasma was measured on an electrospray ionization mass spectrometer connected to a high-performance liquid chromatography (LC/ESI-MS/MS). First, H54//IC17 and sIL6R were mixed, and solutions for preparing the calibration curve of bound sIL6R were prepared at theoretical plasma concentrations of 0.0468, 0.467, 4.60, and 20.1 nmol/mL. […]

mouse albumin = target: T2, mouse albumin (mouse, UniProt P07724 25-608); assay: SPR (Biacore T200), antibody captured by anti-human Fc antibody, mouse albumin as analyte, 25 degrees C
T2 construct: also called recombinant mouse Albumin; mouse serum albumin
Method: Binding activities of the produced antibodies against mouse albumin were evaluated using Biacore T200 (Cytiva).
As the running buffer, 50 mM Na Phosphate (pH 7.4), 150 mM NaCl, 0.05% Tween20 was used, and the evaluation was performed at 25 degrees C. First, anti-human Fc antibody (Cytiva) was used as a ligand-capturing molecule. Anti-human Fc antibody (Cytiva) was solid-phased on a Series S Sensor Chip CM4 (Cytiva) using an Amine Coupling Kit (Cytiva). Antibody solution prepared using the running buffer was allowed to interact with this CM4 sensor chip to capture approximately 120 RU of the antibody. Mouse albumin (Bioscience) was diluted to 0 and 300 nM with the running buffer and allowed to bind to the captured antibody. The chip was regenerated using 3 M MgCl₂, and measurements were performed by repeatedly capturing the antibodies. Dissociation constant (KD) of each antibody for mouse albumin was calculated using Biacore T200 Evaluation Software 2.0. Specifically, the association rate constant ka (L/mol/s) and the dissociation rate constant kd (1/s) were calculated by global fitting of the sensorgrams obtained by measurement with the 1:1 Langmuir binding model, and the dissociation constant KD (mol/L) was calculated from these values.

human soluble IL-6R [2] = target: T1, human soluble IL-6R; assay: SPR (Biacore T200), antibody captured on Protein G, human IL-6R as analyte, 37 degrees C, no albumin
Method: Binding activities of the produced albumin switch molecules against human IL-6R were evaluated using Biacore T200 (Cytiva). As the running buffer, 50 mM Na Phosphate (pH 7.4), 150 mM NaCl, 0.05% Tween20 was used, and the evaluation was performed at 37 degrees C. First, Protein G (CALBIOCHEM) was used as a ligand-capturing molecule. Protein G (CALBIOCHEM) was solid-phased on a Series S Sensor Chip CM4 (Cytiva) using an Amine Coupling Kit (Cytiva). Antibody solution prepared using the running buffer was allowed to interact with this CM4 sensor chip to capture approximately 200 RU of the antibody. Human IL-6R used in the present measurement was prepared by an approach described in WO2018097307 (Example 3-2). Human IL-6R was diluted to 0, 100, and 400 nM with the running buffer, and allowed to bind to the captured antibody. The chip was regenerated using 3 M MgCl₂, and measurements were performed by repeatedly capturing the antibodies. Dissociation constant (KD) of each antibody for human IL-6R was calculated using Biacore T200 Evaluation Software 2.0. Specifically, the association rate constant ka (L/mol/s) and the dissociation rate constant kd (1/s) were calculated by global fitting of the sensorgrams obtained by measurement with the 1:1 Langmuir binding model, and the dissociation constant KD (mol/L) was calculated from these values.

human soluble IL-6R [3] = target: T1, human soluble IL-6R; assay: in vivo KD in mouse plasma (albumin present), from total antibody, free and bound sIL6R 5 min after sIL6R; antibody 1 mg/kg IV
Method: as §1
Additionally, bound sIL6R in plasma was measured. The concentration of bound sIL6R in plasma was measured on an electrospray ionization mass spectrometer connected to a high-performance liquid chromatography (LC/ESI-MS/MS). First, H54//IC17 and sIL6R were mixed, and solutions for preparing the calibration curve of bound sIL6R were prepared at theoretical plasma concentrations of 0.0468, 0.467, 4.60, and 20.1 nmol/mL. The solutions for preparing the calibration curve and 1 or 2 micro L of a plasma sample were added to 75 or 150 micro g of magnetic beads (Magnosphere MS300/Carboxyl, JSR) to which anti-delta GK antibodies were solid-phased, and this was shaken at 25 degrees C. for one hour.

human soluble IL-6R [4] = target: T1, human soluble IL-6R; assay: Gyrolab xP immunoassay of antibody-antigen complex in C57BL/6J mouse plasma (albumin present), 1 nM antibody, 4 nM antigen

| Binder | Kd (human soluble IL-6R [1]) | Kd (mouse albumin) | koff (mouse albumin) | kon (mouse albumin) | Kd (human soluble IL-6R [2]) | koff (human soluble IL-6R [2]) | kon (human soluble IL-6R [2]) | Kd (human soluble IL-6R [3]) | decrease in the signal derived from the complex, compared to H54//IC17 (human soluble IL-6R [4]) |
| --- | --- | --- | --- | --- | --- | --- | --- | --- | --- |
| ABD094(L)-H54//IC17 (bispecific antibody, human IgG1, kappa) heavy 1: QVQLQESGPGLVKPSETLSLTCAVSGYSISDDQAWSWVRQPPGEGLEWIGYISYSGITNYNPSLKGRVTISRDTSKNQFSLKLSSVTAADTAAYYCARSLARTTAMDYWGEGTLVTVSSASTKGPSVFPLAPSSKSTSGGTAALGCLVEDYFPEPVTVSWNSGALTSGVHTFPAVLQSSGLYSLSSVVTVPSSSLGTQTYICNVNHKPSNTKVDERVEPKSCDKTHTCPPCPAPELRRGPSVFLFPPKPKDTLMISRTPEVTCVVVDVSHEDPEVKFNWYVDGVEVHNAKTKPREEQYNSTYRVVSVLTVLHQDWLNGKEYKCKVSNKALPAPIEKTISKAKGQPREPQVCTLPPSREEMTKNQVSLSCAVKGFYPSDIAVEWESNGQPENNYKTTPPVLDSDGSFFLVSKLTVDKSRWQQGNVFSCSVMHEALHNHYTQKSLSLSP light 1: LAEAKEAANAELDSYGVSDFYKRLIDKAKTVEGVEALKDAILAALPDIQMTQSPSSLSASVGDSVTITCQASQDISSYLNWYQQKPGKAPELLIYYGSELHSGVPSRFSGSGSGTDFTFTISSLEAEDAATYYCQQGNSLPYTFGQGTKVEIERTVAAPSVFIFPPSDRKLKSGTASVVCLLNNFYPREAKVQWKVDNALQSGNSQESVTEQDSKDSTYSLSSTLTLSKADYEKHKVYACEVTHQGLSSPVTKSFNRGEC heavy 2: not shown light 2: QVQLQQSGPQLVRPGASVKISCKASGYSFTSYWMHWVNQRPGQGLEWIGMIDPSYSETRLNQKFKDKATLTVDKSSSTAYMQLSSPTSEDSAVYYCALYGNYFDYWGQGTTLTVSSASVAAPSVFIFPPSDEQLKSGTASVVCLLNNFYPREAKVQWKVDNALQSGNSQESVTEQDSKDSTYSLSSTLTLSKADYEKHKVYACEVTHQGLSSPVTKSFNRGEC | 49.1 nM | 11.6 nM | 0.00131 s⁻¹ | 113000 M⁻¹ s⁻¹ | 2.65 nM | 0.00118 s⁻¹ | 445000 M⁻¹ s⁻¹ | 57.3 nM |  |
| ABD094(H/L).N10-H54//IC17 (bispecific antibody, human IgG1, kappa, ABD094 linked via N10 linker (G) at VH and VL N-termini of the IL-6R arm; also called ABD094(H/L).NTO-H54//IC17; ABD094(H/L).NO-H54//IC17) heavy 1: LAEAKEAANAELDSYGVSDFYKRLIDKAKTVEGVEALKDAILAALPGQVQLQESGPGLVKPSETLSLTCAVSGYSISDDQAWSWVRQPPGEGLEWIGYISYSGITNYNPSLKGRVTISRDTSKNQFSLKLSSVTAADTAAYYCARSLARTTAMDYWGEGTLVTVSSASTKGPSVFPLAPSSKSTSGGTAALGCLVEDYFPEPVTVSWNSGALTSGVHTFPAVLQSSGLYSLSSVVTVPSSSLGTQTYICNVNHKPSNTKVDERVEPKSCDKTHTCPPCPAPELRRGPSVFLFPPKPKDTLMISRTPEVTCVVVDVSHEDPEVKFNWYVDGVEVHNAKTKPREEQYNSTYRVVSVLTVLHQDWLNGKEYKCKVSNKALPAPIEKTISKAKGQPREPQVCTLPPSREEMTKNQVSLSCAVKGFYPSDIAVEWESNGQPENNYKTTPPVLDSDGSFFLVSKLTVDKSRWQQGNVFSCSVMHEALHNHYTQKSLSLSP light 1: LAEAKEAANAELDSYGVSDFYKRLIDKAKTVEGVEALKDAILAALPGDIQMTQSPSSLSASVGDSVTITCQASQDISSYLNWYQQKPGKAPELLIYYGSELHSGVPSRFSGSGSGTDFTFTISSLEAEDAATYYCQQGNSLPYTFGQGTKVEIERTVAAPSVFIFPPSDRKLKSGTASVVCLLNNFYPREAKVQWKVDNALQSGNSQESVTEQDSKDSTYSLSSTLTLSKADYEKHKVYACEVTHQGLSSPVTKSFNRGEC heavy 2: not shown light 2: QVQLQQSGPQLVRPGASVKISCKASGYSFTSYWMHWVNQRPGQGLEWIGMIDPSYSETRLNQKFKDKATLTVDKSSSTAYMQLSSPTSEDSAVYYCALYGNYFDYWGQGTTLTVSSASVAAPSVFIFPPSDEQLKSGTASVVCLLNNFYPREAKVQWKVDNALQSGNSQESVTEQDSKDSTYSLSSTLTLSKADYEKHKVYACEVTHQGLSSPVTKSFNRGEC |  |  |  |  |  |  |  |  | 95% |
| ABD094(H/L).N02-H54//IC17 (bispecific antibody, human IgG1, kappa) heavy 1: LAEAKEAANAELDSYGVSDFYKRLIDKAKTVEGVEALKDAILAALPGGGGSQVQLQESGPGLVKPSETLSLTCAVSGYSISDDQAWSWVRQPPGEGLEWIGYISYSGITNYNPSLKGRVTISRDTSKNQFSLKLSSVTAADTAAYYCARSLARTTAMDYWGEGTLVTVSSASTKGPSVFPLAPSSKSTSGGTAALGCLVEDYFPEPVTVSWNSGALTSGVHTFPAVLQSSGLYSLSSVVTVPSSSLGTQTYICNVNHKPSNTKVDERVEPKSCDKTHTCPPCPAPELRRGPSVFLFPPKPKDTLMISRTPEVTCVVVDVSHEDPEVKFNWYVDGVEVHNAKTKPREEQYNSTYRVVSVLTVLHQDWLNGKEYKCKVSNKALPAPIEKTISKAKGQPREPQVCTLPPSREEMTKNQVSLSCAVKGFYPSDIAVEWESNGQPENNYKTTPPVLDSDGSFFLVSKLTVDKSRWQQGNVFSCSVMHEALHNHYTQKSLSLSP light 1: LAEAKEAANAELDSYGVSDFYKRLIDKAKTVEGVEALKDAILAALPGGGGSDIQMTQSPSSLSASVGDSVTITCQASQDISSYLNWYQQKPGKAPELLIYYGSELHSGVPSRFSGSGSGTDFTFTISSLEAEDAATYYCQQGNSLPYTFGQGTKVEIERTVAAPSVFIFPPSDRKLKSGTASVVCLLNNFYPREAKVQWKVDNALQSGNSQESVTEQDSKDSTYSLSSTLTLSKADYEKHKVYACEVTHQGLSSPVTKSFNRGEC heavy 2: not shown light 2: QVQLQQSGPQLVRPGASVKISCKASGYSFTSYWMHWVNQRPGQGLEWIGMIDPSYSETRLNQKFKDKATLTVDKSSSTAYMQLSSPTSEDSAVYYCALYGNYFDYWGQGTTLTVSSASVAAPSVFIFPPSDEQLKSGTASVVCLLNNFYPREAKVQWKVDNALQSGNSQESVTEQDSKDSTYSLSSTLTLSKADYEKHKVYACEVTHQGLSSPVTKSFNRGEC |  |  |  |  |  |  |  |  | 55% |

Reference: patent US20260209363A1 (Chugai, published 2026)
